Biological target: T1, EsCas13d, nuclease-dead (Eubacterium siraeum, UniProt B0MS50, R295A;H300A;R849A;H854A)
T1 sequence: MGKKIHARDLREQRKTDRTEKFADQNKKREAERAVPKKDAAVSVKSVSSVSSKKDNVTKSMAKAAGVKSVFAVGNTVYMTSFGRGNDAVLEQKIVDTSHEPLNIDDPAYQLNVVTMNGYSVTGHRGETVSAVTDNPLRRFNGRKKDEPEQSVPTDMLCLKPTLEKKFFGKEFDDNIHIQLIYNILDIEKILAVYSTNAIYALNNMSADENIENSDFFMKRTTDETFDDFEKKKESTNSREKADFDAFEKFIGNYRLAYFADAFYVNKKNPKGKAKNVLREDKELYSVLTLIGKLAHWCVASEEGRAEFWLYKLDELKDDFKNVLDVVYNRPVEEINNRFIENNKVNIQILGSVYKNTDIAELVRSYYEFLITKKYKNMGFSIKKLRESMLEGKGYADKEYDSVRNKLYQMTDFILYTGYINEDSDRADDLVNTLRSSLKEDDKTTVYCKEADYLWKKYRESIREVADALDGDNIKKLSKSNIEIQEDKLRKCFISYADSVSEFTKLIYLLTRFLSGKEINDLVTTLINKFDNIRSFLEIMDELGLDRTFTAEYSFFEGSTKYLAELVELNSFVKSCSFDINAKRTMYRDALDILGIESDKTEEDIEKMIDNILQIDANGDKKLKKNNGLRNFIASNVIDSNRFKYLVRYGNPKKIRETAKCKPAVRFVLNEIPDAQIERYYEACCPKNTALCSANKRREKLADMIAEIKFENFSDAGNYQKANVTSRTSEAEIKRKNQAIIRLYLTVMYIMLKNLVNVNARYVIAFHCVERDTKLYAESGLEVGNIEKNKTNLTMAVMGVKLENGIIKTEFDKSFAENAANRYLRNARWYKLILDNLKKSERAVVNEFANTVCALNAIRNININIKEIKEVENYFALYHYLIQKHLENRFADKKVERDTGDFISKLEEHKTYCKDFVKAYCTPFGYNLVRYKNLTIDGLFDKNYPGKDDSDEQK
Assay: crRNA (strand 1, pre-loaded); Mg2+; 40 mM Tris-HCl pH 7.5, 150 mM NaCl, 6 mM MgCl2, 1 mM DTT, 0.1% Tween-20, 0.2 mg/ml BSA; 25 C; 10 min per concentration, then washed
Conditions: tags: His6-TwinStrep-SUMO cleaved; N-terminal SNAP kept (SNAP-Surface 488); label: 3' end held by stalled T7 RNA polymerase

| Binder | Kd [nM] |
| --- | --- |
| target 1 U11A,C22A (mixed) RNA 1: CACCCGUGCAAAAAUGCAGGGGUCUAAAACUGAGCGGAUAACCUCUCUAUGG RNA 2: GGGAAUGGAUCCACAUCUACGAAUUCGUAACAUAGAGAGGAUAUCCGCUCACCGAGAUCGGAAGAGCACACGU | 47 ± 6 |
| target 1 del8,del16 (mixed) RNA 1: CACCCGUGCAAAAAUGCAGGGGUCUAAAACUGAGCGGAUAACCUCUCUAUGG RNA 2: GGGAAUGGAUCCACAUCUACGAAUUCGUACCAUAGGAGGUUACCGCUCACCGAGAUCGGAAGAGCACACGU | 71 ± 18 |
| target 1 C6A,G17U (mixed) RNA 1: CACCCGUGCAAAAAUGCAGGGGUCUAAAACUGAGCGGAUAACCUCUCUAUGG RNA 2: GGGAAUGGAUCCACAUCUACGAAUUCGUACCAUAUAGAGGUUAUCAGCUCACCGAGAUCGGAAGAGCACACGU | 18.7 ± 1.2 |
| target 1 insA 3' of 3,insG 3' of 3 (mixed) RNA 1: CACCCGUGCAAAAAUGCAGGGGUCUAAAACUGAGCGGAUAACCUCUCUAUGG RNA 2: GGGAAUGGAUCCACAUCUACGAAUUCGUACCAUAGAGAGGUUAUCCGCUAGCACCGAGAUCGGAAGAGCACACGU | 6.2 ± 0.5 |
| target 1 U3G,U8G (mixed) RNA 1: CACCCGUGCAAAAAUGCAGGGGUCUAAAACUGAGCGGAUAACCUCUCUAUGG RNA 2: GGGAAUGGAUCCACAUCUACGAAUUCGUACCAUAGAGAGGUUAGCCGCGCACCGAGAUCGGAAGAGCACACGU | 10.8 ± 0.4 |
| target 1 insA 3' of 5,insC 3' of 5 (mixed) RNA 1: CACCCGUGCAAAAAUGCAGGGGUCUAAAACUGAGCGGAUAACCUCUCUAUGG RNA 2: GGGAAUGGAUCCACAUCUACGAAUUCGUACCAUAGAGAGGUUAUCCGACCUCACCGAGAUCGGAAGAGCACACGU | 11.3 ± 1 |
| target 1 insU 3' of 17,insU 3' of 17 (mixed) RNA 1: CACCCGUGCAAAAAUGCAGGGGUCUAAAACUGAGCGGAUAACCUCUCUAUGG RNA 2: GGGAAUGGAUCCACAUCUACGAAUUCGUACCAUAGUUAGAGGUUAUCCGCUCACCGAGAUCGGAAGAGCACACGU | 27.7 ± 3.2 |
| target 1 A14G,G15A (mixed) RNA 1: CACCCGUGCAAAAAUGCAGGGGUCUAAAACUGAGCGGAUAACCUCUCUAUGG RNA 2: GGGAAUGGAUCCACAUCUACGAAUUCGUACCAUAGAAGGGUUAUCCGCUCACCGAGAUCGGAAGAGCACACGU | 14.8 ± 1.5 |
| target 1 insC 3' of 13,insG 3' of 4 (mixed) RNA 1: CACCCGUGCAAAAAUGCAGGGGUCUAAAACUGAGCGGAUAACCUCUCUAUGG RNA 2: GGGAAUGGAUCCACAUCUACGAAUUCGUACCAUAGAGAGCGUUAUCCGCGUCACCGAGAUCGGAAGAGCACACGU | 5.33 ± 0.22 |
| target 1 G17U,C22A (mixed) RNA 1: CACCCGUGCAAAAAUGCAGGGGUCUAAAACUGAGCGGAUAACCUCUCUAUGG RNA 2: GGGAAUGGAUCCACAUCUACGAAUUCGUAACAUAUAGAGGUUAUCCGCUCACCGAGAUCGGAAGAGCACACGU | 31.3 ± 3 |
| target 1 insU 3' of 14,insA 3' of 13 (mixed) RNA 1: CACCCGUGCAAAAAUGCAGGGGUCUAAAACUGAGCGGAUAACCUCUCUAUGG RNA 2: GGGAAUGGAUCCACAUCUACGAAUUCGUACCAUAGAGAUGAGUUAUCCGCUCACCGAGAUCGGAAGAGCACACGU | 9.2 ± 0.8 |
| target 1 del11,del14 (mixed) RNA 1: CACCCGUGCAAAAAUGCAGGGGUCUAAAACUGAGCGGAUAACCUCUCUAUGG RNA 2: GGGAAUGGAUCCACAUCUACGAAUUCGUACCAUAGAGGGUAUCCGCUCACCGAGAUCGGAAGAGCACACGU | 32.4 ± 1.8 |
| target 1 insA 3' of 6,insA 3' of 5 (mixed) RNA 1: CACCCGUGCAAAAAUGCAGGGGUCUAAAACUGAGCGGAUAACCUCUCUAUGG RNA 2: GGGAAUGGAUCCACAUCUACGAAUUCGUACCAUAGAGAGGUUAUCCAGACUCACCGAGAUCGGAAGAGCACACGU | 53 ± 6 |

Reference: paper PMC10786891, “Massively parallel profiling of RNA-targeting CRISPR-Cas13d”
